Data published in US20100260765A1 (AstraZeneca / MedImmune, published 2010).

Tests used:
Assay in all cases: cell-based or functional assay
KDR [1] = target: T1, KDR (human, UniProt P35968 20-1356)
KDR [2] = target: T1, KDR; remark: listed apart in the source
KDR [3] = target: T1, KDR; remark: listed apart in the source
KDR [4] = target: T1, KDR; remark: listed apart in the source
KDR [5] = target: T1, KDR; remark: listed apart in the source

T1 sequence (P35968 20-1356): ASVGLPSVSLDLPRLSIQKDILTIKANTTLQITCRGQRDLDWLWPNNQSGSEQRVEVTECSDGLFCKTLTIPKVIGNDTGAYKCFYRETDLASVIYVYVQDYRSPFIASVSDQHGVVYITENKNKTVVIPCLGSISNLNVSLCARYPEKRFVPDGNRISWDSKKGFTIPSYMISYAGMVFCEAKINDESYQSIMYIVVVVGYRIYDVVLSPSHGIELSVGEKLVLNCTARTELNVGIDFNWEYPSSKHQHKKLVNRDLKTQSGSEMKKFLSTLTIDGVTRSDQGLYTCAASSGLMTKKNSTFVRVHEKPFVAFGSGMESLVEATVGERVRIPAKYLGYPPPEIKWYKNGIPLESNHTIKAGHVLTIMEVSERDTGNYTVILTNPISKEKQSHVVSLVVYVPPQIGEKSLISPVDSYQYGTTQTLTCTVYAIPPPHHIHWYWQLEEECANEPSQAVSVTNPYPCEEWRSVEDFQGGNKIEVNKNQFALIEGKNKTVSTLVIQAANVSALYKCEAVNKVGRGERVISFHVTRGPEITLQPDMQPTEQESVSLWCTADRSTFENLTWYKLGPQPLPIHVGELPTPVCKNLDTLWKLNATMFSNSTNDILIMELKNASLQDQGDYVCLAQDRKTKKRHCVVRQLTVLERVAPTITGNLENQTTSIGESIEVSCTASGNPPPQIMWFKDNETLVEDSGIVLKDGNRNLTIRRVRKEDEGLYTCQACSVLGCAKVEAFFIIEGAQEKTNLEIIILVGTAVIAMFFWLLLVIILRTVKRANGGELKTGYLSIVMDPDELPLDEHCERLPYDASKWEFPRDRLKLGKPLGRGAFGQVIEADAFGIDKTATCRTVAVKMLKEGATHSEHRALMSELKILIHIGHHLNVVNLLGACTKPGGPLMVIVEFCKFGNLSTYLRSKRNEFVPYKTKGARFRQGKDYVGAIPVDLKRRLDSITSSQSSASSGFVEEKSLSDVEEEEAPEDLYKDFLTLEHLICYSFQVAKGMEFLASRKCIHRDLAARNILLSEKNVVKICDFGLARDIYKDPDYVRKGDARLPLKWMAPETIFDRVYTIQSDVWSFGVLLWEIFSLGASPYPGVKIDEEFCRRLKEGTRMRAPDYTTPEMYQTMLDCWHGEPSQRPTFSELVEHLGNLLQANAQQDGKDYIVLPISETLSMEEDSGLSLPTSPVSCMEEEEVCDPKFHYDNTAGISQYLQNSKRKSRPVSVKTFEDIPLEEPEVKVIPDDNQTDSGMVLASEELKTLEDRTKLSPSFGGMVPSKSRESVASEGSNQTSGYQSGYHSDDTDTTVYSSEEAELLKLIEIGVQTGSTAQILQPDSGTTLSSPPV

B1: 29F7 (antibody, V domains shown)
VH: QVQLVQSGAEVKKPGASVKVSCKASGYTFTSYDINWVRQATGQGLEWMGWMNPNSGKTGYAQKFQGRVTMTRSTSISTAYMELSSLRSEDTAVYYCARGGYSNLGWFDPWGQGTLVTVSS
VL: DIQMTQSPSSVFASVGDRVTITCRASQGISTWLAWYQQKPGKAPKFLIYAASSLQSGVPSRFSGSGSGTDFTLTISSLQPDDFATYYCQQANNFPFTFGPGTKVDIK
Activity at 133 nM (% Inhibition), 1-hour Pre-incubation at 4° C., Average (KDR [1]): 44%
Activity at 133 nM (% Inhibition), 1-hour Pre-incubation at 4° C., N = 1 (KDR [1]): 36%
Activity at 133 nM (% Inhibition), 1-hour Pre-incubation at 4° C., N = 2 (KDR [1]): 52%
Activity at 133 nM (% Inhibition), 24-hour Pre-incubation at 37° C., Average (KDR [2]): 26%
Activity at 133 nM (% Inhibition), 24-hour Pre-incubation at 37° C., N = 1 (KDR [2]): 23%
Activity at 133 nM (% Inhibition), 24-hour Pre-incubation at 37° C., N = 2 (KDR [2]): 30%
% of Max VEGF KDR pTyr Activity (at 133 nM antibody concentration), Average (KDR [3]): 16%
% of Max VEGF KDR pTyr Activity (at 133 nM antibody concentration), N = 1 (KDR [3]): 19%
% of Max VEGF KDR pTyr Activity (at 133 nM antibody concentration), N = 2 (KDR [3]): 12%
Activity at 133 nM Antibody Concentration (% Survival Inhibition), Average (KDR [4]): -12%
Activity at 133 nM Antibody Concentration (% Survival Inhibition), N = 1 (KDR [4]): 3%
Activity at 133 nM Antibody Concentration (% Survival Inhibition), N = 2 (KDR [4]): -27%
% Inhibition of VEGF165-mediated 6-keto Prostaglandin F1α release at 133 nM Antibody Concentration, Average (KDR [5]): 19%
% Inhibition of VEGF165-mediated 6-keto Prostaglandin F1α release at 133 nM Antibody Concentration, N = 1 (KDR [5]): 1%
% Inhibition of VEGF165-mediated 6-keto Prostaglandin F1α release at 133 nM Antibody Concentration, N = 2 (KDR [5]): 38%

B2: 21H9 (antibody, V domains shown)
VH: QVPLVESGGGVVQPGRSLRLSCAASGFTFSSYGMHWVRQAPGKGLEWVAVIWYDGSNKYYADSVQGRFTISRDNSKNTLYLQMNSLRAEDTAVYYCARGVTMVRGLIIARYYYGLDVWGQGTTVTVSS
VL: DIVMTQTPLSSPVTFGQPASISCRSSQSLVHSDGNTYLSWLQQRPGQPPRLLIYKISNRFFGVPDRFSGSGAGTDFTLKISRVEAEDVGLYYCMQSTQFPLTFGGGTKVEIK
Activity at 133 nM (% Inhibition), 1-hour Pre-incubation at 4° C., Average (KDR [1]): 26%
Activity at 133 nM (% Inhibition), 1-hour Pre-incubation at 4° C., N = 1 (KDR [1]): 21%
Activity at 133 nM (% Inhibition), 1-hour Pre-incubation at 4° C., N = 2 (KDR [1]): 31%
Activity at 133 nM (% Inhibition), 24-hour Pre-incubation at 37° C., Average (KDR [2]): -1%
Activity at 133 nM (% Inhibition), 24-hour Pre-incubation at 37° C., N = 1 (KDR [2]): -3%
Activity at 133 nM (% Inhibition), 24-hour Pre-incubation at 37° C., N = 2 (KDR [2]): 2%
% of Max VEGF KDR pTyr Activity (at 133 nM antibody concentration), Average (KDR [3]): 15%
% of Max VEGF KDR pTyr Activity (at 133 nM antibody concentration), N = 1 (KDR [3]): 16%
% of Max VEGF KDR pTyr Activity (at 133 nM antibody concentration), N = 2 (KDR [3]): 13%
Activity at 133 nM Antibody Concentration (% Survival Inhibition), Average (KDR [4]): -18%
Activity at 133 nM Antibody Concentration (% Survival Inhibition), N = 1 (KDR [4]): -20%
Activity at 133 nM Antibody Concentration (% Survival Inhibition), N = 2 (KDR [4]): -16%
% Inhibition of VEGF165-mediated 6-keto Prostaglandin F1α release at 133 nM Antibody Concentration, Average (KDR [5]): 33%
% Inhibition of VEGF165-mediated 6-keto Prostaglandin F1α release at 133 nM Antibody Concentration, N = 1 (KDR [5]): 5%
% Inhibition of VEGF165-mediated 6-keto Prostaglandin F1α release at 133 nM Antibody Concentration, N = 2 (KDR [5]): 61%

B3: 30D7 (antibody, V domains shown)
VH: QVPLVESGGGVVQPGRSLRLSCAASGFTFSSYGMHWVRQAPGKGLEWVAVIWYDGSNKYYADSVKGRFTISRDNSKNTLYLQMNSLRAEDTAVYYCARGVTMVRGVIIARYYYGLDVWGQGTTVTVSS
VL: DIVMTQTPLSSPVTLGQPASISCRSSQSLVHSDGNTYLSWLQQRPGQPPRLLIYKISNRFFGVPDRFSGSGAGTDFTLKIGRVEAEDVGLYYCMQSTQFPLTFGGGTKVEIK
Activity at 133 nM (% Inhibition), 1-hour Pre-incubation at 4° C., Average (KDR [1]): 27%
Activity at 133 nM (% Inhibition), 1-hour Pre-incubation at 4° C., N = 1 (KDR [1]): 26%
Activity at 133 nM (% Inhibition), 1-hour Pre-incubation at 4° C., N = 2 (KDR [1]): 28%
Activity at 133 nM (% Inhibition), 24-hour Pre-incubation at 37° C., Average (KDR [2]): 38%
Activity at 133 nM (% Inhibition), 24-hour Pre-incubation at 37° C., N = 1 (KDR [2]): 39%
Activity at 133 nM (% Inhibition), 24-hour Pre-incubation at 37° C., N = 2 (KDR [2]): 37%
% of Max VEGF KDR pTyr Activity (at 133 nM antibody concentration), Average (KDR [3]): 12%
% of Max VEGF KDR pTyr Activity (at 133 nM antibody concentration), N = 1 (KDR [3]): 12%
% of Max VEGF KDR pTyr Activity (at 133 nM antibody concentration), N = 2 (KDR [3]): 12%
Activity at 133 nM Antibody Concentration (% Survival Inhibition), Average (KDR [4]): -51%
Activity at 133 nM Antibody Concentration (% Survival Inhibition), N = 1 (KDR [4]): -9%
Activity at 133 nM Antibody Concentration (% Survival Inhibition), N = 2 (KDR [4]): -92%
% Inhibition of VEGF165-mediated 6-keto Prostaglandin F1α release at 133 nM Antibody Concentration, Average (KDR [5]): 10%
% Inhibition of VEGF165-mediated 6-keto Prostaglandin F1α release at 133 nM Antibody Concentration, N = 1 (KDR [5]): 4%
% Inhibition of VEGF165-mediated 6-keto Prostaglandin F1α release at 133 nM Antibody Concentration, N = 2 (KDR [5]): 15%

B4: 27A3 (antibody, V domains shown)
VH: QLQLQESGPGLVKPSETLSLTCTVSGGSISSRSDYWGWIRQPPGKGLEWIGTIYYSGDTYYNPSLKSRVTISVDTSKNQFSLKLSSVTAADTAVYYCARQQLVLYYFDYWGQGTLVTVSS
VL: EIVLTQSPGTLSLSPGERATLSCRASQSVSSSYLAWYQQKPGQAPRLLIYATSNRATGIPDRFSGSGSGTDFTLTISRLEPEDFAVYYCQQHGSSPPLTFGGGTKVEIK
Activity at 133 nM (% Inhibition), 1-hour Pre-incubation at 4° C., Average (KDR [1]): 67%
Activity at 133 nM (% Inhibition), 1-hour Pre-incubation at 4° C., N = 1 (KDR [1]): 63%
Activity at 133 nM (% Inhibition), 1-hour Pre-incubation at 4° C., N = 2 (KDR [1]): 72%
Activity at 133 nM (% Inhibition), 24-hour Pre-incubation at 37° C., Average (KDR [2]): 9%
Activity at 133 nM (% Inhibition), 24-hour Pre-incubation at 37° C., N = 1 (KDR [2]): 19%
Activity at 133 nM (% Inhibition), 24-hour Pre-incubation at 37° C., N = 2 (KDR [2]): 0%
% of Max VEGF KDR pTyr Activity (at 133 nM antibody concentration), Average (KDR [3]): 19%
% of Max VEGF KDR pTyr Activity (at 133 nM antibody concentration), N = 1 (KDR [3]): 22%
% of Max VEGF KDR pTyr Activity (at 133 nM antibody concentration), N = 2 (KDR [3]): 17%
Activity at 133 nM Antibody Concentration (% Survival Inhibition), Average (KDR [4]): 83%
Activity at 133 nM Antibody Concentration (% Survival Inhibition), N = 1 (KDR [4]): 86%
Activity at 133 nM Antibody Concentration (% Survival Inhibition), N = 2 (KDR [4]): 81%
% Inhibition of VEGF165-mediated 6-keto Prostaglandin F1α release at 133 nM Antibody Concentration, Average (KDR [5]): 88%
% Inhibition of VEGF165-mediated 6-keto Prostaglandin F1α release at 133 nM Antibody Concentration, N = 1 (KDR [5]): 54%
% Inhibition of VEGF165-mediated 6-keto Prostaglandin F1α release at 133 nM Antibody Concentration, N = 2 (KDR [5]): 121%

B5: 27D10 (antibody, V domains shown)
VH: QLQLQESGPGLVKPSETLSLTCTVSGGSISSRSDYWGWIRQPPGKGLEWIGTIYYSGSTFYNPSLKSRVTISVDTSKNQFSLKLSSVTAADTAVYYCARQQLVLYYFDYWGQGTLVTVSS
VL: not shown
Activity at 133 nM (% Inhibition), 1-hour Pre-incubation at 4° C., Average (KDR [1]): 65%
Activity at 133 nM (% Inhibition), 1-hour Pre-incubation at 4° C., N = 1 (KDR [1]): 60%
Activity at 133 nM (% Inhibition), 1-hour Pre-incubation at 4° C., N = 2 (KDR [1]): 69%
Activity at 133 nM (% Inhibition), 24-hour Pre-incubation at 37° C., Average (KDR [2]): 8%
Activity at 133 nM (% Inhibition), 24-hour Pre-incubation at 37° C., N = 1 (KDR [2]): 19%
Activity at 133 nM (% Inhibition), 24-hour Pre-incubation at 37° C., N = 2 (KDR [2]): -4%
% of Max VEGF KDR pTyr Activity (at 133 nM antibody concentration), Average (KDR [3]): 18%
% of Max VEGF KDR pTyr Activity (at 133 nM antibody concentration), N = 1 (KDR [3]): 19%
% of Max VEGF KDR pTyr Activity (at 133 nM antibody concentration), N = 2 (KDR [3]): 17%
Activity at 133 nM Antibody Concentration (% Survival Inhibition), Average (KDR [4]): 76%
Activity at 133 nM Antibody Concentration (% Survival Inhibition), N = 1 (KDR [4]): 84%
Activity at 133 nM Antibody Concentration (% Survival Inhibition), N = 2 (KDR [4]): 68%
% Inhibition of VEGF165-mediated 6-keto Prostaglandin F1α release at 133 nM Antibody Concentration, Average (KDR [5]): 84%
% Inhibition of VEGF165-mediated 6-keto Prostaglandin F1α release at 133 nM Antibody Concentration, N = 1 (KDR [5]): 56%
% Inhibition of VEGF165-mediated 6-keto Prostaglandin F1α release at 133 nM Antibody Concentration, N = 2 (KDR [5]): 111%

B6: 33C3 (antibody, V domains shown)
VH: QVQLVESGGGLVKPGESLRLSCAASGFTFSDYYMSWIRQAPGKGLEWVSYISHGGSTIYYADSVKGRFTISRDNAKNSLYLQMNSLRVEDTAVYFCARDDFWSGYYFNWFDPWGQGALVTVSS
VL: DIQMTQYPLSLSASVGDRVTITCRASQSISSFLNWYHQKPGKAPKLLIYGTSSLQSGVPSRFSGSGSGTDFTLTISSLQPEDFATYYCQQTYSIPLTFGGGTNVEIK
Activity at 133 nM (% Inhibition), 1-hour Pre-incubation at 4° C., Average (KDR [1]): 80%
Activity at 133 nM (% Inhibition), 1-hour Pre-incubation at 4° C., N = 1 (KDR [1]): 78%
Activity at 133 nM (% Inhibition), 1-hour Pre-incubation at 4° C., N = 2 (KDR [1]): 83%
Activity at 133 nM (% Inhibition), 24-hour Pre-incubation at 37° C., Average (KDR [2]): 67%
Activity at 133 nM (% Inhibition), 24-hour Pre-incubation at 37° C., N = 1 (KDR [2]): 45%
Activity at 133 nM (% Inhibition), 24-hour Pre-incubation at 37° C., N = 2 (KDR [2]): 88%
% of Max VEGF KDR pTyr Activity (at 133 nM antibody concentration), Average (KDR [3]): 8%
% of Max VEGF KDR pTyr Activity (at 133 nM antibody concentration), N = 1 (KDR [3]): 6%
% of Max VEGF KDR pTyr Activity (at 133 nM antibody concentration), N = 2 (KDR [3]): 10%
Activity at 133 nM Antibody Concentration (% Survival Inhibition), Average (KDR [4]): 103%
Activity at 133 nM Antibody Concentration (% Survival Inhibition), N = 1 (KDR [4]): 104%
Activity at 133 nM Antibody Concentration (% Survival Inhibition), N = 2 (KDR [4]): 102%
% Inhibition of VEGF165-mediated 6-keto Prostaglandin F1α release at 133 nM Antibody Concentration, Average (KDR [5]): 142%
% Inhibition of VEGF165-mediated 6-keto Prostaglandin F1α release at 133 nM Antibody Concentration, N = 1 (KDR [5]): 106%
% Inhibition of VEGF165-mediated 6-keto Prostaglandin F1α release at 133 nM Antibody Concentration, N = 2 (KDR [5]): 178%
